The assay concerns the target T1, GST-DDX6 (wild type), recombinant (UniProt P54823 1-483).
T1 construct: DDX6 (DEAD-box helicase 6); Cloned in pGEX-KG; also called wild-type DDX6; source: E. coli BL21(DE3), purified (Glutathione Sepharose 4B)
T1 sequence (looked up): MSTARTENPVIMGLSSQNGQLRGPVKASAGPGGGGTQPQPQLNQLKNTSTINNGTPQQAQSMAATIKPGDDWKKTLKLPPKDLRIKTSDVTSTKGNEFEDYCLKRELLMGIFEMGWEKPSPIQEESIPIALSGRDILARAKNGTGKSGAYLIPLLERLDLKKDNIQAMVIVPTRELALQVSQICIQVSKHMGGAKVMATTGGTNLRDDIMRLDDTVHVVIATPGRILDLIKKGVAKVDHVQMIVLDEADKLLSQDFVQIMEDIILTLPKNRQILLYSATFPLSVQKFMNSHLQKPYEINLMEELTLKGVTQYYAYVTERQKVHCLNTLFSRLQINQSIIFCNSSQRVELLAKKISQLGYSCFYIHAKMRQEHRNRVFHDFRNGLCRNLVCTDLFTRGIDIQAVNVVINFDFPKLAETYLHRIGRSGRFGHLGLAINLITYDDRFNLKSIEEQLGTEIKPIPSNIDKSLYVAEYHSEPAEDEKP
Briefly: BLI; BLItz; 6xHis-MBP-DDX3X^166-590 loaded on Ni-NTA biosensors; GST-DDX6 or GST-DDX6^Mut6 at 125, 250 and 500 nM; 20 mM Tris-HCl pH 8.0, 150 mM KCl, 0.02% Tween 20, DTT, 1 mg/ml BSA; global fit to a 1:1 model. Particulars: both partners purified.

One may read the Kd as the concentration at which binding is half-saturated.

B1: 6xHis-MBP-DDX3X^166-590 (domain or fragment, UniProt Q62167 166-590, looked up)
chain: IPVEATGNNCPPHIESFSDVEMGEIIMGNIELTRYTRPTPVQKHAIPIIKEKRDLMACAQTGSGKTAAFLLPILSQIYADGPGEALRAMKENGRYGRRKQYPISLVLAPTRELAVQIYEEARKFSYRSRVRPCVVYGGAEIGQQIRDLERGCHLLVATPGRLVDMMERGKIGLDFCKYLVLDEADRMLDMGFEPQIRRIVEQDTMPPKGVRHTMMFSATFPKEIQMLARDFLDEYIFLAVGRVGSTSENITQKVVWVEEIDKRSFLLDLLNATGKDSLTLVFVETKKGADSLEDFLYHEGYACTSIHGDRSQRDREEALHQFRSGKSPILVATAVAARGLDISNVKHVINFDLPSDIEEYVHRIGRTGRVGNLGLATSFFNERNINITKDLLDLLVEAKQEVPSWLENMAFEHHYKGSSRGRSKS
notes: Cloned in pMCSG9; source: E. coli BL21(DE3), purified (Ni-NTA)
In the case of B1, the Kd is 389 nM.

The values above are taken from article PMC12418388, “DDX6 interacts with DDX3X to repress translation in microRNA-mediated silencing” (Nucleic Acids Research, 2025).
